# Literature values, collected in patent US10744082B2, “Compositions for treatment of xerostomia and for tooth treatment” (3 IN 1 DENTAL PLLC, priority 2013, dated 2020).
# B1: Papain (protein, UniProt P00784 134-345, looked up)
# Papain: IPEYVDWRQKGAVTPVKNQGSCGSCWAFSAVVTIEGIIKIRTGNLNEYSEQELLDCDRRSYGCNGGYPWSALQLVAQYGIHYRNTYPYEGVQRYCRSREKGPYAAKTDGVRQVQPYNEGALLYSIANQPVSVVLEAAGKDFQLYRGGIFVGPCGNKVDHAVAAVGYGPNYILIKNSWGTGWGENGYIRIKRGTGNSYGVCGLYTSSFYPVKN
# notes: Protease enzyme; white or grayish-white, slightly hygroscopic powder, designated USP
# System: lean meat
# Conditions: usual grade of papain
molecule,measurement,value
B1,potency: weight of lean meat digested,~35 times its weight
